Measurements: patent US20250340623A1 (AC IMMUNE, published 2025)
Changes are numbered by the printed parent chain. Where no end group is shown, it is not given here. The star is where a group is joined. Biotin = O=C1N[C@H]2[C@H](CS[C@H]2CCCCC(=O)*)N1; Ahx = NCCCCCC(=O)O

B1: ACI-7079-2503C6-Ab1 (antibody, V domains shown)
VH: DVQLQESGPGLVKPSQSLSLTCSVTGYSITSGYYWNWIRLFPGNKLEWLGYINYDGSNNFNPSLKNRISITRDTSKNQFFLKLNSVTSEDTATYFCLRGDWDWGQGTLVTVSA
VL: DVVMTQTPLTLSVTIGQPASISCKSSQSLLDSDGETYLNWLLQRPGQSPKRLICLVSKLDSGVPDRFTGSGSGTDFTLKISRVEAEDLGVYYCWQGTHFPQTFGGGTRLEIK
notes: mouse hybridoma mAb; VH/VL only; also called 2503C6H9
B2: ACI-7067-1107G5-Ab2 (antibody, V domains shown)
VH: QVQLQQPGTELVKPGASVKLSCKASGYTFTKYWMHWVKQRPGQGLEWIGNINPNNGDTNYNEKFKSKATLTVDKSSSTAYMQLSSLTSEDSAVYYCAIAMDYWGQGTSVTVSS
VL: DIQMTQSPSSLSAFLGERVSLTCRASQDIGNNLNWFQQEPDGTIKRLIYATSSLDSGVPKRFSGSRSGSEYSLTISSLESEDFVDYYCLQFGSSPLTFGAGTKLELK
notes: mouse hybridoma mAb; VH/VL only; also called 1107G5B6
B3: ACI-7067-1111B12-Ab2 (antibody, V domains shown)
VH: B2 VH with Q5L, E10A, K13M, K31T, N54I, D57G, T58S, T69S, A97V
VL: B2 VL with F14S, N31I, N32S, S65N, E70D, V84A, G92A
notes: mouse hybridoma mAb; VH/VL only; also called 1111B12H10
B4: ACI-7079-2501B11-Ab3 (antibody, V domains shown)
VH: QVQLQQSGPELVKPGASVKISCKASGYAFSSFWMNWMKQRPGKGLEWIGRIYPGDGDAHYNGEFKGRATLTADKSSSTAYMQLSSLTSEDSAVYFCARKGDFYGSNYDYWGQGTTLTVSS
VL: QAVVTQESALTTSPGETVTLTCRSSTGAVTTSNYANWVQEKPDHLFTGLIGGTNNRAPGVPARFSGSLIGDKAALTITGAQTEDEAIYFCALWYSNHLVFGGGTRLTVL
notes: mouse hybridoma mAb; VH/VL only; also called 2501B11C7
B5: ACI-7079-2506E2-Ab2 (antibody, V domains shown)
VH: QVQLQQSGPELVRPGASVKISCKASGYAFSNSWMNWVKQRPGKGLEWIGRIFPGDGDTYYDGKFKGKVKLTTDKFSNTAYMQLRSLTSEDSAVYFCARWGGTNDEWFAHWGQGTLVTVSV
VL: DIVLTQSPASLTVSLGQRATISCRASQSVSTSRNSYMHWYQQKPRQPPKLLIKYASNLESGVPARFSGSGSGADFTLNIHPVEEEDTATYYCQHSWDIPLTFGTGTKLELS
notes: mouse hybridoma mAb; VH/VL only; also called 2506E2G4
B6: ACI-7079-2606A6-Ab2 (antibody, V domains shown)
VH: QVQLQQSGPELVKPGASVKISCKASGFAFSSSWMNWVKQRPGKGLEWVGRIFPGDGDTNYDRKFKDKATLTADKSSSTAYMQLSSLTSEDSAVYFCARWTGGYDWFAYWGQGTLVTVSA
VL: DIVLTQSPASLAVSLGQRATISCRASQSVSTSNYNYLHWYQQKPGQPPKLLITYASNLESGVPARFSGSGSGTDFTLNIHPVEEGDTATYYCQHSWEIPLTFGAGTKLELK
notes: mouse hybridoma mAb; VH/VL only; also called 2606A6D5
B7: ACI-7067-1101C8-Ab2 (antibody, V domains shown)
VH: EVQLVESGGGLVQPKGSLKLSCAASGFSFNIYAMNWVRQAPGKGLEWVARIRSKSNNYATYYADSVKDRFTISRADSESMLYLQMNNLKTEDTAMYYCVRVGLRFYAMDYWGQGTSVTVSS
VL: DVLMTQTPLSLPVSLGDQASISCRSSQSIVHSNGNTYLEWYLQKPGQSPKLLIYKVSNRFSGVPDRFSGSGSGTDFTLKISRVEAEDLGVYYCFQGSQGPLTFGAGTKLELK
notes: mouse hybridoma mAb; VH/VL only; also called 1101C8F7
B8: ACI-7079-2501G2-Ab2 (antibody, V domains shown)
VH: B7 VH with S28N, I31T, S53T, Y58F, D64H, A75D, V101Q, R104A, F105Y
VL: B7 VL with A19V, S28T
notes: mouse hybridoma mAb; VH/VL only; also called 2501G2E5

Key:
[1] = molecular target: alpha-synuclein seeds (UniProt P37840 1-140); experiment: cell-based or functional assay
[2] = molecular target: T1, 46-60aa; experiment: indirect ELISA on biotinylated 15-mer peptide
T1 construct: also called alpha-synuclein peptide 46-60
T1 peptide: {Biotin-Ahx}-EGVVHGVATVAEKTK
Method: (§1) Serum-free supernatants were harvested from stable hybridomas. The supernatants containing antibodies of interest were then screened by an indirect ELISA assay to determine epitopes. Epitopes were first determined using a library of 15-mer peptides covering the entire sequence of human alpha-synuclein protein, spanning amino acids (aa) 1-140 with 9aa offset and […] overlap. […] Briefly, streptavidin-coated ELISA plates were blocked overnight at 4° C. […] Plates were washed with PBS/0.05% Tween®20 and then incubated with the hybridoma supernatants at 1/100 dilution for 1 hour at 25° C.

[3] = molecular target: T2, 118-132aa; experiment: indirect ELISA on biotinylated 15-mer peptide
T2 peptide: {Biotin-Ahx}-VDPDNEAYEMPSEEG
Method: as §1

[4] = molecular target: T3, 1-14aa; experiment: indirect ELISA on biotinylated 15-mer peptide
T3 construct: also called alpha-synuclein peptide 1-14
T3 peptide: MDVFMKGLSKAKEG-biotin
Method: as §1

[5] = molecular target: T4, 10-24aa; experiment: indirect ELISA on biotinylated 15-mer peptide
T4 construct: also called alpha-synuclein peptide 10-24
T4 peptide: {Biotin-Ahx}-KAKEGVVAAAEKTKQ
Method: as §1

[6] = molecular target: T5, 91-105aa; experiment: indirect ELISA on biotinylated 15-mer peptide
T5 peptide: {Biotin-Ahx}-ATGFVKKDQLGKNEE
Method: as §1

[7] = molecular target: T6, 127-140aa; experiment: indirect ELISA on biotinylated 15-mer peptide
T6 peptide: {Biotin-Ahx}-MPSEEGYQDYEPEA
Method: as §1

[8] = molecular target: T7, 1-15aa; experiment: indirect ELISA on biotinylated 15-mer peptide
T7 construct: also called alpha-synuclein peptide 1-15
T7 peptide: {Biotin-Ahx}-MDVFMKGLSKAKEGV
Method: as §1

[9] = molecular target: T8, 82-96aa; experiment: indirect ELISA on biotinylated 15-mer peptide, supernatant 1/100
T8 construct: also called alpha-synuclein peptide 82-96
T8 peptide: {Biotin-Ahx}-VEGAGSIAAATGFVK
Method: as §1

[10] = molecular target: T8, 82-96aa; experiment: indirect ELISA on biotinylated 15-mer peptide
Method: as §1

[11] = molecular target: T9, 64-78aa; experiment: indirect ELISA on biotinylated 15-mer peptide
T9 construct: also called alpha-synuclein peptide 64-78
T9 peptide: {Biotin-Ahx}-TNVGGAVVTGVTAVA
Method: as §1

[12] = molecular target: T1, 46-60aa; experiment: indirect ELISA on biotinylated 15-mer peptide, supernatant 1/100
Method: as §1

[13] = molecular target: T5, 91-105aa; experiment: as above
Method: as §1

[14] = molecular target: T2, 118-132aa; experiment: as above
Method: as §1

Binder | aggregation half-time (τ1/2) of seeded alpha-synuclein aggregation, ThT; no antibody 26.9 hours [1] [h] | binding result [2] | binding result [3] | binding result [4] | binding result [5] | binding result [6] | binding result [7] | binding result [8] | binding result [9] | binding result [10] | binding result [11] | binding result [12] | binding result [13] | binding result [14]
B1 | 22.5 | no binding (tested: supernatant 1/100) | no binding (tested: supernatant 1/100) | no binding (tested: supernatant 1/100) | no binding (tested: supernatant 1/100) | no binding (tested: supernatant 1/100) | no binding (tested: supernatant 1/100) | no binding (tested: supernatant 1/100) | binds | – | – | – | – | –
B2 | – | – | no binding (tested: supernatant 1/100) | – | – | – | no binding (tested: supernatant 1/100) | – | – | no binding (tested: supernatant 1/100) | no binding (tested: supernatant 1/100) | binds | – | –
B3 | – | – | no binding (tested: supernatant 1/100) | – | – | – | no binding (tested: supernatant 1/100) | – | – | no binding (tested: supernatant 1/100) | no binding (tested: supernatant 1/100) | binds | – | –
B4 | – | no binding (tested: supernatant 1/100) | no binding (tested: supernatant 1/100) | no binding (tested: supernatant 1/100) | no binding (tested: supernatant 1/100) | – | no binding (tested: supernatant 1/100) | no binding (tested: supernatant 1/100) | – | no binding (tested: supernatant 1/100) | – | – | binds | –
B5 | – | no binding (tested: supernatant 1/100) | – | no binding (tested: supernatant 1/100) | no binding (tested: supernatant 1/100) | no binding (tested: supernatant 1/100) | no binding (tested: supernatant 1/100) | no binding (tested: supernatant 1/100) | – | no binding (tested: supernatant 1/100) | – | – | – | binds
B6 | – | no binding (tested: supernatant 1/100) | no binding (tested: supernatant 1/100) | no binding (tested: supernatant 1/100) | no binding (tested: supernatant 1/100) | – | no binding (tested: supernatant 1/100) | no binding (tested: supernatant 1/100) | – | no binding (tested: supernatant 1/100) | – | – | binds | –
B7 | 64 | no binding (tested: supernatant 1/100) | – | – | – | – | no binding (tested: supernatant 1/100) | – | – | no binding (tested: supernatant 1/100) | no binding (tested: supernatant 1/100) | – | – | binds
B8 | – | no binding (tested: supernatant 1/100) | – | no binding (tested: supernatant 1/100) | no binding (tested: supernatant 1/100) | no binding (tested: supernatant 1/100) | no binding (tested: supernatant 1/100) | no binding (tested: supernatant 1/100) | – | no binding (tested: supernatant 1/100) | – | – | – | binds
